Experimental data: patent US20140295512A1, “Ketol-Acid Reductoisomerases With Improved Performance Properties” (CALIFORNIA INSTITUTE OF TECHNOLOGY, priority 2011, published 2014)

B1: E. coli IlvC: Escherichia coli ketol-acid reductoisomerase (ilvC), wild type (protein, UniProt P05793 2-491, looked up)
Ketol-acid reductoisomerase …: ANYFNTLNLRQQLAQLGKCRFMGRDEFADGASYLQGKKVVIVGCGAQGLNQGLNMRDSGLDISYALRKEAIAEKRASWRKATENGFKVGTYEELIPQADLVINLTPDKQHSDVVRTVQPLMKDGAALGYSHGFNIVEVGEQIRKDITVVMVAPKCPGTEVREEYKRGFGVPTLIAVHPENDPKGEGMAIAKAWAAATGGHRAGVLESSFVAEVKSDLMGEQTILCGMLQAGSLLCFDKLVEEGTDPAYAEKLIQFGWETITEALKQGGITLMMDRLSNPAKLRAYALSEQLKEIMAPLFQKHMDDIISGEFSSGMMADWANDDKKLLTWREETGKTAFETAPQYEGKIGEQEYFDKGVLMIAMVKAGVELAFETMVDSGIIEESAYYESLHELPLIANTIARKRLYEMNVVISDTAEYGNYLFSYACVPLLKPFMAELQPGDLGKAIPEGAVDNGQLRDVNEAIRSHAIEQVGKKLRGYMTDMKRIAVAG
B2: Se1_KARI: Slackia exigua (ATCC 700122) ketol-acid reductoisomerase, wild type, SEQ ID NO: 2 (protein, listed as Slackia exigua)
chain: MSVKTKEKEMAVTILYEQDVDPKVIQGLKVGIIGYGSQGHAHALNLMDSGVDVRVGLREGSSSWKTAEEAGLKVTDMDTAAEEADVIMVLVPDEIQPKVYQEHIAAHLKAGNTLAFAHGFNIHYGYIVPPEDVNVIMCAPKGPGHIVRRQFTEGSGVPDLACVQQDATGNAWDIVLSYCWGVGGARSGIIKATFAEETEEDLFGEQAVLCGGLVELVKAGFETLTEAGYPPELAYFECYHEMKMIVDLMYESGIHFMNYSISNTAEYGEYYAGPKVINEQSREAMKEILKRIQDGSFAQEFVDDCNNGHKRLLEQREAINTHPIETTGAQIRSMFSWIKKED

Key:
[1] = test system: S. cerevisiae host strain GEVO3956; test: Shake flask isobutanol fermentations with KARI as limiting pathway enzyme; assay type: cell-based; details: mean of 3 experiments
Source text: In this example, a series of KARI genes were individually expressed from a yeast promoter in conjunction with other components of an isobutanol production pathway in yeast such that KARI was the limiting enzyme in the pathway and the amount of isobutanol produced during a fermentation was dependent on the KARI activity level. In this system, the S. cerevisiae host strain GEVO3956 was used to produce isobutanol when supplied with an isobutanol production pathway plasmid expressing ALS and KIVD, and a low copy number plasmid expressing KARI, DHAD, and ADH enzymes.
Shake flask fermentations using GEVO3956 carrying these individual plasmids were performed together with GEVO3956 carrying pGV3022 (derived from pGV3009 but containing the E. coli ilvC-coSc gene expressed from the Sc_PDC1^−350 promoter) and GEVO3956 carrying pGV3012 (equivalent to pGV3009 lacking the Sc_PDC1^−350 promoter and KARI gene) for comparison of isobutanol production. The shake flask fermentations were performed as follows. The strains were grown overnight in 3 mL of YPD medium containing 1% v/v ethanol and 0.1 g/L G418 at 30° C. and 250 rpm. The OD600 of these cultures was determined after overnight growth and the appropriate amount of culture was added to 50 mL of YP medium containing 5% w/v glucose, 1% v/v ethanol. 200 mM MES, pH 6.5, and 0.1 g/L G418 to obtain an OD600 of 0.1 in 250 mL baffled flasks with sleeve caps. Cultures were incubated at 30° C. and 250 rpm overnight. The OD600 of these cultures was determined after overnight growth and the appropriate amount of culture to total 250 ODs was added to 50 mL Falcon tubes and centrifuged at 2700×g for 5 minutes. The supernatant was removed and cells were resuspended in 50 mL of YP medium containing 8% w/v glucose, 1% v/v ethanol, 200 mM MES, pH 6.5, and 0.1 g/L G418 to obtain a final OD600 of 5 OD per ml. At t=0 the OD600 of each flask was determined. The fermentation cultures were incubated at 30° C. and 250 rpm in non-baffled 250 mL flasks with vented screw cap tops. After 24, 48 and 72 hours of incubation, 1.5 mL of culture was removed into 1.5 mL microcentrifuge tubes from each culture. OD600 values were determined from the samples and the remainder of each sample was centrifuged for 10 min at 14,000 rpm in a microcentrifuge and 1 mL of the supernatant was removed to be submitted for gas chromatographic analysis. Analysis of volatile organic compounds, including ethanol and isobutanol, was performed on an Agilent 6890 gas chromatograph (GC) fitted with a 7683B liquid autosampler, a split/splitless injector port, a ZB-FFAP column (Phenomenex 30 m length, 0.32 mm ID, […] film thickness) connected to a flame ionization detector (FID). […]

[2] = KARI enzyme assay on cell lysates with NADH and NADPH as cofactors; assay type: biochemical; details: for NADH-Dependent Specific Activity: empty vector control subtracted
Protocol: In this example, different KARI enzymes (Table 7) were screened for their activity with NADH and NADPH as cofactor. The enzymes were expressed in an S. cerevisiae strain by means of 2 micron plasmids carrying the KARI genes under the control of the S. cerevisiae TDH3 promoter. The transformants were cultivated in shake flask fermentations as described below and samples were taken after 44 h, centrifuged at 4000×g for 10 mins at 4° C. and the cell pellets were stored at −80° C. until analysis. The pellets were lysed by bead beating and the lysates were analyzed by KARI activity assay as described below using NADH and NADPH as cofactors.
Patched cells (or single colonies) grown on YPD+G418 plates at 30° C. were mixed into 3 mL YP+12% dextrose+200 mM MES, pH 6.5+G418, in 14 mL culture tubes and incubated at 250 RPM, 30° C. for ˜24 hours. The cells from the cultures were used to inoculate YP+12% dextrose+200 mM MES, pH 6.5+G418, in non-baffled flasks with a vented grey screw-caps at OD600 0.01. The cultures were incubated at 250 RPM, 30° C. for 24 hours, diluted 1:3 and incubated for another 20 h at 250 RPM, 30° C. Samples for enzyme assay pellets and protein quantification pellets were taken from each shake flask, and cell-free supernatant was used to measure glucose levels in shake flasks.
The assay and no substrate control reactions were performed in triplicate for each sample. The following stock solutions were prepared: 1 M potassium phosphate, pH 7, 0.1 M MgCl2, 100 mM DTT, 25 mM NADH or NADPH, 200 mM 2-acetolactate. The 2-acetolactate was made fresh each time by mixing 50 μL Ethyl-2-acetoxy-2-methylacetoacetate (EAMAA) with 990 μL water. Gradually 260 μL of 2 N NaOH was added in 10 μL increments to the EAMAA water mixture. After each addition the sample was vortexed for 15 seconds, and the procedure repeated until the entire 260 μL of 2 N NaOH was added. Afterwards the solution was mixed on an orbital shaker for 20 min (Krampitz, 1957). KARI reaction buffer (100 μL per reaction) was prepared to the following concentrations: 250 mM potassium phosphate, pH 7, 10 mM MgCl2, 1 mM DTT, 0.2 mM NADH or NADPH, 10 mM 2-acetolactate. For the no substrate controls, the 2-acetolactate was substituted with water. 10 μL of each lysate were transferred into a 96 well half area assay plate. The reaction was started with 90 μL of reaction buffer to each well using a multichannel pipette. The samples were mixed immediately. The samples were read at 340 nm every 10 s for 5 min.

[3] = KARI assay in 100-μL scale to measure pH optimum; assay type: biochemical; details: pH 6.0-8.5, NADPH
Protocol: Assay buffers were prepared containing 100 mM potassium phosphate with pH values ranging from 6.0-8.5 in 0.5-steps, 1 mM DTT, 10 mM MgCl2, 2.5 mM acetolactate, and 200 μM NADPH (final concentrations). Ten μL purified enzyme were placed into a flat-bottom assay plate (Evergreen Scientific). The reactions were initiated by addition of 90 μL assay buffer. The change in absorbance at 340 nm was monitored over 1 min in a plate reader (TECAN).

[4] = KARI assay in 100-μL scale to measure acetolactate KM value; assay type: biochemical; details: for Km: NADPH, pH 7.0, read-out: KM (S)-2-acetolactate
Protocol: An assay buffer was prepared containing 100 mM potassium phosphate pH 7.0, 1 mM DTT, 10 mM MgCl2, and 200 μM NADPH (final concentrations). Five μL purified enzyme and 5 μL of varying concentrations of acetolactate (8-0.125 mM final) were placed into a flat-bottom assay plate (Evergreen Scientific). The reactions were initiated by addition of 90 μL assay buffer. The change in absorbance at 340 nm was monitored over 1 min in a plate reader (TECAN).

Row | Molecule | 48 h isobutanol Titer [1] | 72 h isobutanol Titer [1] | Specific Activity with NADH/Specific Activity with NADPH [2] | NADH-Dependent Specific Activity [2] | optimum pH [3] | KM for acetolactate, times higher than KM of S. exigua KARI [4] | KM, fold higher than the Ki for R-DHIV [4] | Km [4] | optimum pH ([3]; listed as S. exigua KARI) | KM, fold lower than the Ki for R-DHIV [4]
1 | B1 | 3.93 ± 1.16 g/L | 4.72 ± 0.90 g/L | 0.175 | 0.04 U/mg lysate | 7.5 | 32 fold | 3 fold | 300 ± 100 µM | – | –
2 | B2 | 2.82 ± 0.11 g/L | 4.40 ± 0.34 g/L | 0.96 | 0.059 U/mg lysate | 7 | – | – | 170 µM | approximately 7.0 | 10 fold
